Source: patent US20240101645A1 (HENRY M JACKSON FOUNDATION FOR THE ADVANCEMENT OF MILITARY …, published 2024)

Columns and labels:
[1] = biological target: T1, MERS-CoV spike antigens (bead panel) (MERS-CoV, UniProt K9N5Q8 18-1296); experiment: multiplex bead assay
T1 sequence: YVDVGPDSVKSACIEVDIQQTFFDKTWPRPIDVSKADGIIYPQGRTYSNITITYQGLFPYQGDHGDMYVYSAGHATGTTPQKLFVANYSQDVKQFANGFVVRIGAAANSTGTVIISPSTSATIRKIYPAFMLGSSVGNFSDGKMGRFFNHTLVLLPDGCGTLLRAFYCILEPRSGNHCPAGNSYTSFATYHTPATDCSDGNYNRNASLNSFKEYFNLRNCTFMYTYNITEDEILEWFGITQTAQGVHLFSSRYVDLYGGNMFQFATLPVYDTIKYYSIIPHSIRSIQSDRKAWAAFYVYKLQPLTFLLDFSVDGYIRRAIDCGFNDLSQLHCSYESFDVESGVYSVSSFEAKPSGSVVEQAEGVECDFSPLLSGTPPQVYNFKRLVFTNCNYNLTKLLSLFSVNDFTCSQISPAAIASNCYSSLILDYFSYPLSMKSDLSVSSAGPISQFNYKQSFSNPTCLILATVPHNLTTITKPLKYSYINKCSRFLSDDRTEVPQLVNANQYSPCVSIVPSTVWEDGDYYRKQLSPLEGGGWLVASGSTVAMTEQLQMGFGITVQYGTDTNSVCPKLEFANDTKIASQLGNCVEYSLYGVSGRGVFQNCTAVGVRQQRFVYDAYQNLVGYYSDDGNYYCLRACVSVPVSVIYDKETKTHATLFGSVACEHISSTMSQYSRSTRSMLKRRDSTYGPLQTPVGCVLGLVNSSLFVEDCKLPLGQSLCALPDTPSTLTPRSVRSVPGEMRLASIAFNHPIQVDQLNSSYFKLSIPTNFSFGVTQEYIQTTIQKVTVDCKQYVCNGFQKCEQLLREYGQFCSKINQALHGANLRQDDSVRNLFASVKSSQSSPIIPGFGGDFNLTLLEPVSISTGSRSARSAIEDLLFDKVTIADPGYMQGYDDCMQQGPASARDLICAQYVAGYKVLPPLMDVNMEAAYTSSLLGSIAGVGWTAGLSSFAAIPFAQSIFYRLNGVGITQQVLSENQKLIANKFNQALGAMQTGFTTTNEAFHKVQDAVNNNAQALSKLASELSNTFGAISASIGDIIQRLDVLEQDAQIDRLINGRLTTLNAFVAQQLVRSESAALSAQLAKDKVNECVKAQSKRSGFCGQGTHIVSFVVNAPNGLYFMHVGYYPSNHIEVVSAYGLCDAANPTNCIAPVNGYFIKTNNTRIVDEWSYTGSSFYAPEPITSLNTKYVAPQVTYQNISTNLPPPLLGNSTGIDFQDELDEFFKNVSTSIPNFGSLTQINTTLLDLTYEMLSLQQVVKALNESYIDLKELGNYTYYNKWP

[2] = biological target: SARS-CoV-2 S on pseudovirions (Wuhan Hu-1 / IL1/2020, last 18 amino acids removed) (SARS-CoV-2, UniProt P0DTC2 14-1273); experiment: cell-based or functional assay
[3] = biological target: SARS-CoV-1 spike antigens (bead panel) (SARS-CoV-1, UniProt P59594 14-1195); experiment: multiplex bead assay

B1: COV_1144 (antibody, V domains shown)
VH: EVQLVESGGGLVQPGGSLRLSCAASGFTFRSFWMSWVRQAPGKGLEWVANIKEDASEKHYVDPVKGRFTISRDNAKNSLYLQLNSLRAEDMAVYYCARVGRGYCTNGLCYTAFEYWGQGTLVTVSS
VL: DIQMTQSPSSLSASVGDRVTITCRTSQSISNYLNWYQQKPGKAPKLLIYAASSLQSGVPSRFSGSGSGTDFTLTISSLQPEDFATYYCQQSYSTAWTFGQGTKVEIRR
notes: human IgG1
[1]
  binding result: no binding
[2]
  Mean IC50, pSV neutralization: ≥ 25 µg/ml
  Mean IC80, pSV neutralization: ≥ 25 µg/ml

B2: COV_1151 (antibody, V domains shown)
VH: QVQVQQWGAGLLKPSETLSLTCAVYGGSFNNYYWSWIRQPPGKGLEWIGEINHSGSTNYNPSLMSRVTISVDTSKNQFSLKLTSVTAADTAVYFCARGLPVTTFFSSYYGMDVWGQGTTVTVSS
VL: EIVLTQSPGTLSLSPGERATLSCRASQSVSRTYLAWYQQKPGQAPRLLIYGASSRATGIPDRFSGSGSGTDFTLTISRLEPEDFAVYYCQHYGSSPWTFGQGTKVEIRR
notes: human IgG1
[1]
  binding result: no binding
[2]
  Mean IC50, pSV neutralization: ≥ 25 µg/ml
  Mean IC80, pSV neutralization: ≥ 25 µg/ml

B3: COV_1166 (antibody, V domains shown)
VH: EVQLVESGGGLVQPGGSLRLSCAVSGFTFRSFWMSWVRQTPGKGLEWVANIKEDGSEKYYVDSVKGRFTISRDNAKNSLYLQMNSLRAEDTAVYYCAREGRWELLGFAFDIWGQGTMVTVSS
VL: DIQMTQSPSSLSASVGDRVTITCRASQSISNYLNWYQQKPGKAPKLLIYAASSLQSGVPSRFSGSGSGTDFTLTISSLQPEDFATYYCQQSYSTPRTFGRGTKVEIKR
notes: human IgG1
[1]
  binding result: no binding
[2]
  Mean IC50, pSV neutralization: ≥ 25 µg/ml
  Mean IC80, pSV neutralization: ≥ 25 µg/ml

B4: COV_1170 (antibody, V domains shown)
VH: QVQLVESGGGVVQPGRSLRLSCAASGFTFSTYAMHWVRQAPGKGLEWVALISYDGSNKYYADSVKGRFTISRDNSKNTLDLQMNSLRAEDTAVYYCARSLGGYRTGFDYWGQGTLVTVSS
VL: DIQLTQSPSFLSASVGDRVTITCRASQGISSYLAWYQQKPGKAPKLLIYAASTLQSGVPSRFSGSGSGTEFTLTISSLQPEDFATYYCQQLNSYPPFTFGPGTKVDIKR
notes: human IgG1
[1]
  binding result: no binding
[2]
  Mean IC50, pSV neutralization: 0.2 µg/ml
  Mean IC80, pSV neutralization: ≥ 25 µg/ml

B5: COV_1172 (antibody, V domains shown)
VH: QVQLQESGPGLVKPSETLSLTCTVSGGSIRSYYWSWIRQPPGKGLEWIGYIYYSGSTNYSPSLKSRVTISVDTSKNQFSLKLNSVTAADTAVYYCARRGLGYCSGDSCSNAFDIWGQGTMVTVSS
VL: DIQMTQSPSSLSASVGDRVTITCRASQSISSYLNWYQQKPGRAPELLIYDASSLQSGVPSGFSGSGSGTDFTLTISSLQPEDFATYYCQQSYSTPFTFGPGTKVDIKR
notes: human IgG1
[1]
  binding result: no binding
[2]
  Mean IC50, pSV neutralization: ≥ 25 µg/ml
  Mean IC80, pSV neutralization: ≥ 25 µg/ml

B6: COV_2048 (antibody, V domains shown)
VH: QVQLQESGPGLVKPSETLSLTCTVSGGSISNTSYYWGWIRQPPGKGLEWIGSIYRSGSTYYNPSLKSRVTISIDTSKNQFTLKLSSVTAADTAVYYCARDYYGDYSAKPMEYWGQGTLVTVSS
VL: QSALTQPRSVSGSPGQSVTISCTGTSSDVGGYNYVSWYQQHPGKAPKLLIYDVSKRPSGVPDRFSGSKSGNTASLTISGLQAEDEADYYCCSYAGSYVVFGGGAKLTVLG
notes: human IgG1
[1]
  binding result: no binding
[2]
  Mean IC50, pSV neutralization: 20.3 µg/ml
  Mean IC80, pSV neutralization: ≥ 25 µg/ml

B7: COV_2077 (antibody, V domains shown)
VH: QVQLQESGPGLVKPSETLSLTCTVSGGSISSYSWSWIRQPPGKGLEWIGYIYYSGSTNYNPSLKSRVTISVDTSKNQFSLKLSSVTAADTAVYYCARESMGRYSLELRQPESAFDYWGRGTLVTVSS
VL: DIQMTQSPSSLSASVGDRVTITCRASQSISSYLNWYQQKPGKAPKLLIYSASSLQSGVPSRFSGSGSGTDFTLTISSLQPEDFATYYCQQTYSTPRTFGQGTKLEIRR
notes: human IgG1
[1]
  binding result: no binding
[2]
  Mean IC50, pSV neutralization: ≥ 25 µg/ml
  Mean IC80, pSV neutralization: ≥ 25 µg/ml

B8: COV_2093 (antibody, V domains shown)
VH: EVQLVESGGGLVQPGGSLRLSCAASGFMFNRFWMSWVRQAPGKGLEWVTNIKQDGSEKNYVDSVKGRFTISRDNAKNSLYLQMNSLRAEDTAVYYCARDGLYYDFRSPSPFYGMDVWGQGTTVTVSS
VL: DIQMTQSPSSLSASVGDRVTITCRASQSISSYLNWYQHKSGKAPKLLIYAASRLQSGVPSRFSGSGSGTDFTLTIVSLQPEDLATYYCQQSYSTPRTFGGGTKVEIKR
notes: human IgG1
[1]
  binding result: no binding
[2]
  Mean IC50, pSV neutralization: ≥ 25 µg/ml
  Mean IC80, pSV neutralization: ≥ 25 µg/ml

B9: COV_2143 (antibody, V domains shown)
VH: EVQLVESGGGVVQPGRSLRLSCAASGFTFNSFAMLWVRQAPGKGLEWVALFSYDGSNKYYADSVKGRFTISRDNSKNTLYLQMNNLRAVDTAVYYCARASPYDINGYYLHRIAFDIWGQGTMVTVSS
VL: QSVLMQPPSVSGAPGQRVTISCTGSSSNIGAGYDVHWYQQLPGTAPKLLMYGNSNRPSGVPDRFSGSKSGTSASLAITGLQAEDEADYYCQSYDSGLSGWVFGGGTKLTVLG
notes: human IgG1
[1]
  binding result: no binding
[2]
  Mean IC50, pSV neutralization: ≥ 25 µg/ml
  Mean IC80, pSV neutralization: ≥ 25 µg/ml

B10: COV_2027 (antibody, V domains shown)
VH: EVQLVESGGGLIQPGGSLRLSCAASGFSVSTNYMSWVRQAPGKGLEWVSIIYSGGGTYYADSVKGRFTISRDTSENTLYLQMNSLRAEDTAVYYCASFLVGATGQPWYWGQGTLVTVSS
VL: not shown
notes: human IgG1
[3]
  binding result: no binding
[2]
  Mean IC50, pSV neutralization: 0.16 µg/ml
  Mean IC80, pSV neutralization: 0.45 µg/ml

B11: COV_2057 (antibody, V domains shown)
VH: EVQLVQSGAEVKKPGESLKISCKGSGYSFISYWIAWVRQMPGKGLEWMGIIYPGDSDTTYSPSFQGQVTISADKSISTAYLQWSSLKASDTAIYYCARLLYYSDSSPLDSWGQGTLVTVSS
VL: DIQMTQSPSSLSASVGDRVTITCRASQSISTYLNWYQQKPGKAPNLLIYAASSLQSGVPSRFSGSGSGTDFTLTISSLQPEDFATYYCQQSHSTPRTFGPGTKVDIK
notes: human IgG1
[3]
  binding result: no binding
[2]
  Mean IC50, pSV neutralization: 0.97 µg/ml
  Mean IC80, pSV neutralization: 8.99 µg/ml

B12: COV_2100 (antibody, V domains shown)
VH: EVQLVESGGGLVQPGGSLRLSCAASGFTFSSYDMYWVRQATGKGLEWVSAIGTAGDTYYPGSVKGRFTISRENAKNSLYLRMNSLRAGDTAVYFCARADKNTAMFFDYWGQGTLVTVSS
VL: DIQMTQSPSSLSASVGDRVTITCRASQNINNFLHWYQQKPGNAPKLLIYAASTLQSGVPSRFSGSGSGTDFTLTISSLQPEDFATYYCQQSYSTPGGTFGGGTKVEIK
notes: human IgG1
[2]
  Mean IC50, pSV neutralization: 23 µg/ml
  Mean IC80, pSV neutralization: ≥ 25 µg/ml

B13: COV_2134 (antibody, V domains shown)
VH: EVQLVESGGGVVQPGRSLRLSCAASGFIFSSYGMYWVRQAPGKGLEWVAVIWYDGSNKYYADSVKGRFTISRDNSKNTLYLQMNSLRAEDTAVYYCARDLSSSSGWDDYYYYYGMDVWGQGTTVTVSS
VL: not shown
notes: human IgG1
[2]
  Mean IC50, pSV neutralization: 16.1 µg/ml
  Mean IC80, pSV neutralization: ≥ 25 µg/ml

B14: COV_2193 (antibody, V domains shown)
VH: QVQLVQSGAEVKKPGASVKVSCKVSGYTLTDLSMHWVRQTPGKGLEWMGGFDAEDGETIYAQNFQGRVTMTEDTSIDVAYMELSSLRSEDTAVYYCATGSVGPDYWGQGTLVTVSS
VL: SSELTQDPAVSVALGQTVRITCQGDSLRSYYASWFQQKPGQAPVLVIYLKNDRPSGIPDRFSGSSSGNTASLTITGAQAEDEADYYCNSRDSSGNHQVFGGGTKLTVL
notes: human IgG1
[2]
  Mean IC50, pSV neutralization: ≥ 25 µg/ml
  Mean IC80, pSV neutralization: ≥ 25 µg/ml

B15: COV_1025 (antibody, V domains shown)
VH: QVQLVESGGGVVQPGRSLRLSCAASGFTFNTYAMHWVRQAPGKGLEWVAIISYDGGNKYYADSMKGRFTISRDNSKNTLYLQMNSLRAEDTAVYYCARARTGNYYYGMDVWGQGTTVTVSS
VL: not shown
notes: human IgG1
[1]
  binding result: no binding

B16: COV_2032 (antibody, V domains shown)
VH: EVQLVESGGGLVQPGGSLRLSCAASGFTFTTYWMHWVRQAPGKGLVWVSRIKTDGSSTNYADSVKGRFTISRDNAKNMLYLQMNSLRAEDTAVYYCAREGPVSIVYFDYWGQGTLVTVSS
VL: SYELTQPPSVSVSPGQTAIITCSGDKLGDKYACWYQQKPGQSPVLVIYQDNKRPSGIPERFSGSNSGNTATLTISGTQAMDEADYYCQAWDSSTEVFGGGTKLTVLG
notes: human IgG1
[1]
  binding result: no binding

B17: COV_2125 (antibody, V domains shown)
VH: EVQLVESGGGVVQPGRSLRLSCAASGFTFSSYGMHWVRQAPGKGLEWVAVISYDGSNKYYADSVKGRFTISRDNSKNTLSLQMNSLRPEDTAVYYCAKDSPYYYDSSGYYPGYFQDWGQGSLVTVSS
VL: DIQMTQSPSSLSASIGDRVTITCRASQTISDYLNWYQQKPGKAPNLLIYAASTLQSGVPSRFSGSGSGTDFTLTISSLQPEDFATYYCQQSYITPRTFGQGTKVEIK
notes: human IgG1
[3]
  binding result: no binding
